In the supplement of paper PMC10567573 one finds protein stability index data, which are given here for 5 proteins.

The nature of the data set: protein stability index of a GFP-peptide fusion (GPS, HEK-293T) (PSI 1-6); higher = more stable. Particulars: c terminus: native.
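Also: lentivirally expressed fusion library, cells FACS-sorted into six equal-sized GFP/DsRed ratio bins, PSI computed from sequencing read fractions per bin weighted by bin number.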

B1: PSMB5 addF (peptide)
chain: DGWIRVSSDNVADLHEKYSGSTPF
Regarding B1, the protein stability index (parent: NP_002788.1) came to 3.79.

B2: SNF8 addF (peptide)
chain: LPALFTDLYSQEITAEEAREALPF
Take B2: the protein stability index (parent: NP_009172.2) came to 4.24.

B3: TRPA1 addF (peptide)
chain: EQRNSRWNTVLRAVKAKTHHLEPF
B3: the protein stability index (parent: NP_015628.1) was 4.28.

B4: BEX2 addF (peptide)
chain: HSLRAVSTDPPHHDHHDEFCLMPF
On to B4, for which the protein stability index (parent: NP_116010.1) was 3.66.

B5: POLD2 addF (peptide)
chain: CQPISFSGFGAEDDDLGGLGLGPF
B5: the protein stability index (parent: NP_006221.1) was found to be 3.13.
